These results are taken from article PMC2685083.

The target of assay [1] is myc-tagged β^+/his6-tagged β^C heterodimer (E. coli) (UniProt P0A988). Kind of assay: SPR. On the technique in general: Surface plasmon resonance follows binding to a sensor surface in real time, without labels.
Assay [2] addresses β^+–δ1 complex (his6-tagged β^+ homodimer with one tightly bound δ) (E. coli) (UniProt P0A988). In words: SPR.

With “DnaX clamp loader complex, γ3δδ′χψ form (from UniProt P06710-2;P28630;P28631;P28905;P28632)”, the off rate relative to that from β^+ in assay [1] amounted to 2 fold.
As usually defined, the Kd is the equilibrium constant for the complex coming apart. Broadly, the koff is a measure of how fast the partners let go of each other. A lower koff goes with slow dissociation. A word on the kon: it is the second-order rate constant of association. A higher kon goes with fast association. In assay [1], “α catalytic subunit of Pol III (from UniProt P10443 1-1160) (enzyme)” gave a Kd of 0.172 µM, a koff of 0.0125 s⁻¹ and an on-rate (kon) of 72700 M⁻¹ s⁻¹.
By stoichiometry N is commonly meant a count of units in the complex or per binding partner. On to “δ subunit of the DnaX clamp loader complex (from UniProt P28630 1-343) (natural protein)”, for which, in assay [1], the dissociation constant (Kd) came out at 0.0156 µM and the stoichiometry N came out at 1. The Kd in assay [2] came to 0.16 µM.
